Source: the RNAGym collection of RNA variant scans (doi:10.7554/elife.80360)

B1: HDV Ribozyme (parent)
chain: GGCCGGCAUGGUCCCAGCCUCCUCGCUGGCGCCGGCUGGGCAACAUUCCGAGGGGACCGUCCCCUCGGUAAUGGCGAAUGGGACCCA

Variants of: B1
Test: self-cleavage, relative activity (ratio to wild type); higher = more cleavage; co-transcriptional
For U20G C21U, the self-cleavage was 0.26. With C19G C86A the self-cleavage was 0. C19G C86G gave a self-cleavage of 0.104. Variant C19A U69C has a self-cleavage of 0.146. With C19A C49U the self-cleavage was 0.185. U20C C36U gave a self-cleavage of 0.131. Work on C19G G25U yielded a self-cleavage of 0.0923. In the case of U20C G67A, the self-cleavage is reported as 0.17. Variant U20G A71U has a self-cleavage of 0.151. For C21A G34U, the self-cleavage was 0.0647. With U20A C84A the self-cleavage was 0.208. C21A C84U showed a self-cleavage of 0.0489. Work on U20G C41A yielded a self-cleavage of 0.145. U20A A83G gave a self-cleavage of 0.14. U20C C30U gave a self-cleavage of 0.157. Variant U20C C30A has a self-cleavage of 0.0923. In the case of U20C G81U, the self-cleavage is reported as 0. Variant C19G C36U has a self-cleavage of 0.0767. For U20C A83G, the self-cleavage was 0.149. In the case of C19G U79G, the self-cleavage is reported as 0.222. For C19A C48G, the self-cleavage was 0.22. C19A C48U showed a self-cleavage of 0.0683. C19A C48A gave a self-cleavage of 0.0934. In the case of C21A C75U, the self-cleavage is reported as 0.0297. In the case of C19G G68C, the self-cleavage is reported as 0.0875. In the case of U20C C41G, the self-cleavage is reported as 0.172. For C19U C66A, the self-cleavage was 0.182. Variant C19U C66U has a self-cleavage of 0.22. U20G G55U gave a self-cleavage of 0.332. Work on U20C C21A yielded a self-cleavage of 0.0475. With C19A C44G the self-cleavage was 0.0615. Variant C19U G67U has a self-cleavage of 0.145. In the case of U20G A83C, the self-cleavage is reported as 0.158. Variant U20G A83G has a self-cleavage of 0.16. U20G C61A gave a self-cleavage of 0.142. For C19A C22U, the self-cleavage was 0.0203. With C19A C22G the self-cleavage was 0.155. In the case of U20G A78U, the self-cleavage is reported as 0. Work on C19A G40A yielded a self-cleavage of 0.109. U20A G34C showed a self-cleavage of 0.199. For U20A G34A, the self-cleavage was 0.0992. C19G A70C gave a self-cleavage of 0. For U20A G73A, the self-cleavage was 0.0791. With U20G A42U the self-cleavage was 0. With C19A C57G the self-cleavage was 0.119. With C19A C57A the self-cleavage was 0.0801. C19G U37G showed a self-cleavage of 0.111. With U20A U65C the self-cleavage was 0.0639. Variant U20A U65G has a self-cleavage of 0.101. U20A G76C showed a self-cleavage of 0. With U20A C30G the self-cleavage was 0.095. Variant U20A U46G has a self-cleavage of 0.166. With C21A G29C the self-cleavage was 0.0604. Work on C21A G29A yielded a self-cleavage of 0.0875. In the case of C19U A77C, the self-cleavage is reported as 0.0811. Variant U20A C48G has a self-cleavage of 0. For C19A G59U, the self-cleavage was 0.134. Variant C19G U60G has a self-cleavage of 0.0405. Work on C19G U60A yielded a self-cleavage of 0.0959. C19G U60C gave a self-cleavage of 0.0627. Work on C21A C62A yielded a self-cleavage of 0.185. In the case of U20A A56C, the self-cleavage is reported as 0.0519. Variant U20A A56G has a self-cleavage of 0.0536. With U20C G34C the self-cleavage was 0. C19U C26U gave a self-cleavage of 0.718. For C19A A87G, the self-cleavage was 0.11. With U20C G80A the self-cleavage was 0.0496. For U20G U46A, the self-cleavage was 0.192. For C21A G28A, the self-cleavage was 0.0268. C19U U69C showed a self-cleavage of 0.0997. With C19G G28U the self-cleavage was 0.208. For U20C A71C, the self-cleavage was 0.0692. C19U U27C gave a self-cleavage of 0.135. C19U U27A gave a self-cleavage of 0.332. With C19A C58A the self-cleavage was 0.095. C19G C61A showed a self-cleavage of 0.106. Variant U20A A45G has a self-cleavage of 0. In the case of U20G U47G, the self-cleavage is reported as 0.185. Variant U20G G25U has a self-cleavage of 0.166. With U20C G76A the self-cleavage was 0.198. Variant U20C G76U has a self-cleavage of 0.17. In the case of C19G A42G, the self-cleavage is reported as 0. With C19A C84U the self-cleavage was 0.0804. Variant U20A C22G has a self-cleavage of 0. For U20A C22U, the self-cleavage was 0. C19U C57A showed a self-cleavage of 0.0886. For C21A C66U, the self-cleavage was 0.0683. C21A C66A gave a self-cleavage of 0.0755. Variant U20G G34A has a self-cleavage of 0. For U20C G38U, the self-cleavage was 0. Variant U20C G38C has a self-cleavage of 0.0831. C19U G54A showed a self-cleavage of 0.179. C19U G54U gave a self-cleavage of 0.174. Variant C19U G31C has a self-cleavage of 0.0845. For C19U G31U, the self-cleavage was 0.115. C19G C44A gave a self-cleavage of 0. For C19G C44G, the self-cleavage was 0.0959. C19G C44U gave a self-cleavage of 0.0563. C19A G50C showed a self-cleavage of 0.0923. For U20C A77U, the self-cleavage was 0.0898. C19A G55U gave a self-cleavage of 0.0923. With C19A G55C the self-cleavage was 0.0489. Work on U20C C86U yielded a self-cleavage of 0.138. U20G G38U showed a self-cleavage of 0.0573. Variant C19U A56U has a self-cleavage of 0.0863. C19G G81U gave a self-cleavage of 0.0997. Work on U20C G50A yielded a self-cleavage of 0.306. Work on U20A G39C yielded a self-cleavage of 0.185. U20A C64G gave a self-cleavage of 0.0639. With U20A C64A the self-cleavage was 0.113. With C19U U20A the self-cleavage was 0.149. In the case of C19U G34C, the self-cleavage is reported as 0.0346. With C19U G80A the self-cleavage was 0.0573. For U20A C75G, the self-cleavage was 0.0791. For C19G U46G, the self-cleavage was 0.107. Work on C19G U46A yielded a self-cleavage of 0. C19U A43U gave a self-cleavage of 0.104. Work on C19U A43C yielded a self-cleavage of 0.111. With C19U G81U the self-cleavage was 0.131. For U20C C75A, the self-cleavage was 0.0594. Work on C19A G25A yielded a self-cleavage of 0.138. Variant U20C A78U has a self-cleavage of 0.111. U20A C26G showed a self-cleavage of 0. C19U C41A showed a self-cleavage of 0.0804. For C19U C41G, the self-cleavage was 0.116. C19U U72A showed a self-cleavage of 0.0504. U20C G54U showed a self-cleavage of 0.122. U20G U69G showed a self-cleavage of 0.0831. With U20A U27A the self-cleavage was 0.0723. Variant U20A G40A has a self-cleavage of 0.0426. C19U C84U showed a self-cleavage of 0.0811. For C19U C84A, the self-cleavage was 0.0554. C21A C36A gave a self-cleavage of 0.117. U20A G50A showed a self-cleavage of 0.0449. U20A G50C gave a self-cleavage of 0.131. Variant U20C C24A has a self-cleavage of 0. For C19G C49G, the self-cleavage was 0.0426. For C19A G76A, the self-cleavage was 0.185. For C21A C32G, the self-cleavage was 0.0426. For C19G C75A, the self-cleavage was 0.0773. With U20C A51U the self-cleavage was 0.185. U20G U72A showed a self-cleavage of 0.0875. Variant C19A G29U has a self-cleavage of 0.0733. In the case of C19U A45G, the self-cleavage is reported as 0.111. In the case of C19U A70U, the self-cleavage is reported as 0.169. In the case of C19A U46A, the self-cleavage is reported as 0.0707. C19A G67U showed a self-cleavage of 0.281. In the case of C19A G67A, the self-cleavage is reported as 0.0941. For C19G U69C, the self-cleavage was 0. C19G U69A showed a self-cleavage of 0. Variant C19G G73C has a self-cleavage of 0.0244. U20A G74C gave a self-cleavage of 0.0396. Variant U20A U47G has a self-cleavage of 0. With U20A A43U the self-cleavage was 0.0386. Work on C19G C41G yielded a self-cleavage of 0.0573. Work on C19A G28A yielded a self-cleavage of 0.225. Work on U20C A42U yielded a self-cleavage of 0.0978. C19U C44A gave a self-cleavage of 0. For C19U C44U, the self-cleavage was 0.0852. Work on C19A C66U yielded a self-cleavage of 0.116. In the case of U20C C62A, the self-cleavage is reported as 0. Variant C21A G40A has a self-cleavage of 0.0647. Work on C19G C58G yielded a self-cleavage of 0.0739. Work on C21A G59C yielded a self-cleavage of 0.116. C21A C41A showed a self-cleavage of 0.121. For C19G U20C, the self-cleavage was 0.0692. With U20G C32G the self-cleavage was 0.0475.
